Test: yeast display, Sf9 membrane polyspecificity reagent, FACS + sequencing; frameworks hold sequencing errors
How it was run: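 Sorting gates, low and high (top ~1%), were placed on anti-HA fluorescence to track expression and on streptavidin fluorescence to track reagent binding. A clone's polyreactivity label is taken from the gate it came out of. The reagent was 10% biotinylated, detergent-solubilized Sf9 membrane, applied for 1 hour at 4 °C to galactose-induced yeast display cells.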

Sequence | polyreactivity (PSR sort gate)
QVQLVESGGGLVQAGGSLRLSSAASGRTFQYYAMGWYRQAPGKERELVAAIDSSGGSTYYADSVKGRFTISRDNAKNTVYLQMNSLKPEDTAVYYCIAGRYRYYYYGYDYWGQGTQVTVSS | high polyreactivity
QVQLVESGGGLVQAGGSLRLSSAASGRTFRYNAMGWYRQAPGKERELVAAIRRGGSTNYADSVKGRITISRDNAKNTVYLQMNSLKPEDTAFYFCAKGHPNDFGYWGQGTQVTVSS | high polyreactivity
QVQLVESGGGLVQAGGSLRLSSAASGRTFTRYTMGWYRQAPGKERELVAAIRYSGGSTYYADSVKGRFTISRDNAKNTVYLQMNSLKPEDTAVYYCAARSYYYGFLYRYDYWGQGTQVTVSS | low polyreactivity
QVQLVESGGGLVQAGGSLRLSSAASGRTFWRYGMGWYRQAPGKERELVAAITDSGDSTYYADSVKGRFTISRDNAKNTVYLQMNSLKPEDTAVYYCAASDVVFALNGYYPGEDDYWGQGTQVTVSS | low polyreactivity
QVQLVESGGGLVQAGGSLRLSSAASGRTFYSNAMGWYRQAPGKERELVAGISKSGGITYYADSVKGRFTISRDNAKNTVYLQMNRLKPEDTAVYYCAARRRGRFYYWGQGTQVTVSS | high polyreactivity
QVQLVESGGGLVQAGGSLRLSSAASGSIFGDYAMGWYRQSPGKERELVAAISSDGSTNYADSVKGRFTISRDNAKNTVYLQMNSLKPEDTAVYYCAADTGGWYFYSYYYWGQGTQVTVSS | low polyreactivity
QVQLVESGGGLVQAGGSLRLSSAASGSIFRVNAMGWYRQAPGKERELVAAISTSGGNTYYADSVKGRFTISRDNAKNTVYLQMNSLKPEDTAVYYCNAPWSSFNGFTGRYDYWGQGTQVTVSS | low polyreactivity
QVQLVESGGGLVQAGGSLRLSSAASGSIFRYNAMGWYRPAPGKERELVAAITSSGGSTYYADSVKGRFTISRDNAKNTVYLQMNSLKPEDTAVYYCAAVRRRVHYPYDYWGQGTQVTVSS | high polyreactivity
QVQLVESGGGLVQAGGSLRLSSAASGSIFRYNAMGWYRQAPGKERELFAAISYRGGRTYYADSVKGRFTISRDNAKNTVYLQMNSLKPEDTAVYYCNADSIYSARGWLYGYWGQGTQVTVSS | low polyreactivity
QVQLVESGGGLVQAGGSLRLSSAASGSIFSQNAMVWYTQAPGKERELVASISSGDSTTYADSVKGRFTISRDNAKNTVYLQMNSLKPEDTAVYYCNAYRYNALPWRYVGYDYWGQGTQVTVSS | low polyreactivity
QVQLVESGGGLVQAGGSLRLSSAASGSIFYGNSMGWYRQAPGKERELVAAISQSGGSTYYADSVKGRFTISRDNAKNTVYLQMNSLKPEDTAVYYCAAYTPYATWRYDYWGQGTQVTVSS | low polyreactivity
QVQLVESGGGLVQAGGSLRLSSAASGSIFYRYAMGWYRQAPGKERELVAVISRGGSTNYADSVKGRFTISRDNAKNTVYLQMNSLKPEDTAVYYCAAGGYSKGDYWGQGTQVTVSS | high polyreactivity
QVQLVESGGGLVQAGGSLRLSSAASGSILPYYAMGWYRQAPGKESELVATITSRGGSTYYADSVKGRFTISRDNAKNTVYLQMNSLKPEDTAVYYCAKEYRYYRRRYDYCGQGTQVTVSS | high polyreactivity
QVQLVESGGGLVQAGGSLRLSSAASGSILTINAMGWYRLAPGKERELVARITISSGSTYYADSVKGRFTISRDNAKNTVYLQLNSLKPEDTAVYYCAKLRYPYLFWDDSEYWGQGTQVTVSS | low polyreactivity
QVQLVESGGGLVQAGGSLRLSSAASGSNFPTNAMGWYRQAPGKETELVAAITDGGSTNYADSVKGRFTISRDNAKNTVYLQMNSLKPEDTAVYYCAAVGFKTVLPEYDYWGKGTQVTVSS | low polyreactivity
QVQLVESGGGLVQAGGSLRLSSAASGSTFFLYGMRWYSQPPGKERQLVAAITWNGGSTSYADSVKGRFTISRDIAKFTVYLQMNSLKPEDTAVYYWAADYYGYFSTAYEYWGQGTQVTVSS | low polyreactivity
QVQLVESGGGLVQAGGSLRLSSAASGSTFFSYAMGWYRQAPGKERELVAAISWIDDGTYYADSVKGRFTISRDNAKNTVYLQMNSLKPEDTAVYYCAADIGAYRTWDYEYWGQGTQVTVSS | low polyreactivity
QVQLVESGGGLVQAGGSLRLSSAASGSTFGPYAMGWYRQAPGKERELVAAISRRGTSTYYADSVKGRFTISRDNAKNTVYLQMNSLKPEDTAVYYCNAVTSSFFNRDSDYWGQGNQVTVSS | high polyreactivity
QVQLVESGGGLVQAGGSLRLSSAASGSTFPVYALGWYRQAPGKERELVAAITRTGARTYYADSVKGRFTISRDNAKNTVYLQMNSLTPEDTAVYYCAARGAGGILGRYGYWGQGTKVTVSS | high polyreactivity
QVQLVESGGGLVQAGGSLRLSSAASGSTFRRNAMGWYRQAPGKQRELVAAITWRGTSTYYADSVKGRFTISRDNAKNTVYLQMNSLKPEDTAVDYCAAPWVVRRTAYDYWGQGTQVTVSS | high polyreactivity
QVQLVESGGGLVQAGGSLRLSSAASGSTIFLYDMGWYRQAPGKERELVAAITISGGSTYYADSVKGRFTISRDNAKNTVYLQMNSLKPEDTAVYYCAVRTYRFRHWPKYDYWGQGTQVTVSS | high polyreactivity
QVQLVESGGGLVQAGGSLRLSSAASGSTVPRYAMGWDRQAPGKERAFVAVIWSGGSTYYAVSVKGRFTISRDNAKNTVYLQMNSLKPEDTAVYYCAAEYHTLSKYSGYATHDYWGQGTQVTVSS | low polyreactivity

Sequence | polyreactivity (PSR sort gate)
QVQLVESGGGLVQAGGSLRLSSAASGTTFAPNAMGWYRPAPGKERELVAAISSGGDSTNYADSVKGRFTISRDNAKNTVYLQLNSLKPEDTAVYYCAAHYVEREYDYWGQGTQVTVSS | low polyreactivity
QVQLVESGGGLVQAGGSLRLSSAASRSTFTVYAMGWYRQAPGKETELVAAITGGGRTYYADSVKGRFTISRDNAKNTVYLQMNSLKPEDTAVYYCAKKYSWRYARVYSLHFDYWGQGTQVTVSS | high polyreactivity
QVQLVESGGGLVQAGGSLRLSSADSGRTFRYYAMRWYRPAPGKERELVAAITRGGRTNYADSVKGRFTISRDNAKNTVYLQMNSLKPEDTAVYYCAAVLYTPNKYASYYWGQGTQVTVSS | high polyreactivity
QVQLVESGGGLVQAGGSLRLSSAPSGSTFYGYSRGWYRPAPGKERELVAAISSRGGSTKYADSVKGRFTISRDNAKNTVYLQMNSLKPEDTAVYYCAATSRSSRRYYYWGQGTQVTVSS | high polyreactivity
QVQLVESGGGLVQAGGSLRLSSASSGRIFPDNTMGWYRQAPGKERELVAVITYSGGSTYYADSVKGRFTISRDNAKNTVYLQMNSLKPDDTAVYYCAARDYYIWFAEVDYWGQGTQVTVSS | low polyreactivity
QVQLVESGGGLVQAGGSLRLSSASSGSIFTDNGMGCYRHAPGKESELVAAISWRGGTYYADSVKGRFTISRDNAKNTVYLQMNSLKPEDSAVYYSAADVLRISTRLFRGPGFDSWGQGTQVTVSS | low polyreactivity
QVQLVESGGGLVQAGGSLRLSSASSGSIIFLYTMGWYRQAPGKERELVAAIDSVGSTNYADSVKGRFTISRDNAKNTVYLHMNSLKPEDTAVYYCNAYFWVGLYEYDYWGQGTQVTVSS | low polyreactivity
QVQLVESGGGLVQAGGSLRLSSPASGYIISTYVMGWYRQAPGKERDLVAAITRSGGSTYYADSVKGRFTISRDNAKNNVYLQMNSLKPEDTAVYYCNAYLYLYGLSGRYDYWGQGTQVTVSS | high polyreactivity
QVQLVESGGGLVQAGGSLRLSVAASGRTFYSYSMGWYRQAHGKERELVASITNGETKNYADSVKGRFTISRDNAKNTVYLQMNSLKPEDTAVYYCAADDSSRTTYDYWGQGTQVTVSS | low polyreactivity
QVQLVESGGGLVQAGGSLRLSWAASGFIFDPNAMGWYRQAPGKERDLVAAISSSGGRTYYADSVKGRFTISRDNAKNTVYLQMNSLKPEDTAVYYCATDTSVQGQEYDYWGQGTQVTVSS | low polyreactivity
QVQLVESGGGLVQAGGSLRLSWAASGGTFVPYAMGWYRQAPGTERELVARISKRGGTTYYADSVKGRFTISRDNAKYTVYLQMNSLKPEDTAVYYCAAVLPARGYYWGQGTQVTVSS | high polyreactivity
QVQLVESGGGLVQAGGSLRLSWAASGITFDLYAMGWYRPAPGKEREFVATISWTGGTTYYADSVKGRFTISRDNAKNTVDLQMISLKPEVPAASYCNKGSDFFWYDYDYCGQGTQVTVSS | low polyreactivity
QVQLVESGGGLVQAGGSLRLSWAASGRIFASYAMGWYRQATGKERELVAAISGSGGSTYYADSVKGRFTMSRDNAKKTVYLQLNSLKPEDTAVYYCAARYRSYWYRYVGYDYWGQGTQVNVSS | high polyreactivity
QVQLVESGGGLVQAGGSLRLSWAASGRTFQYYTMGWYRQAPGKERELVAAISTGGSTHYADSVKGRFTISRDNAKNTVYLQMNSLKPEDTAVYYCAALWSRRRSRPRFPGDYWGQGTQVTVSS | high polyreactivity
QVQLVESGGGLVQAGGSLRLSWAASGSIFYQNPMGSYRQAPGKERELVAAISSAGSTYYADSVKGRFTISRDNAKNTVYLQMNSLKPADTAVYYCAADDLGWWFYSGGEDYYYWGQATQVTVSS | low polyreactivity
QVQLVESGGGLVQAGGSLRLSWAASGSISGFNAMGWYRQAPGKERELVAAISYSGGRTYYADSVKGRFTISRDNAKNNVYLHMNSLKPEDTAVFYCAADKFMYSKYTVFRDVYWGQGTQVTLSS | high polyreactivity
QVQLVESGGGLVQAGGSLRLSWAASGSTFAWYAMGWYRQAPGKDRELVATISSGGSTYYADSVKGRFTISRDNAKNTVYLQMNSLKTEDTAVYYCAADYLTPWVYWFSYGLDYWGQGTQVTVSS | low polyreactivity
QVQLVESGGGLVQAGGSLRLSWAASGSTFAYNDMGWYRQAPGKERELVASITSGGSTNYADSVKGRFTISRDNAKNTVYLQMNSLKPEDTAVYYCAARVRYRFDYWGQGTQVTVSS | low polyreactivity
QVQLVESGGGLVQAGGSLRLSWAASGSTFNVYAMGWYRQAPGKERELVAGIRDSDGSTNYADSVKGRFTISRDNAKNTVYLQMNSLKPEDTAVYYCAADLYDINWSVWLDYWGQGTQVTVSS | low polyreactivity
QVQLVESGGGLVQAGGSLRLSWAASGSTFVVNAMGWYRQAPGKERELVAAITQDGDGTYYADSVKGRFTISRDNAKNTVYLQMNSLKPEDTAVYYCAAYPFYGPYDEFDYWGQGTEVTVSS | low polyreactivity
QVQLVESGGGLVQAGGSLRLSWAASSIFRTYAMGWYRQAPGKERELVAAITWSGASTNYADSVKGRFTISRDNAKNTVYLQMNSLKPEDTAVYYCNADWRYYPSFKYYYWGQGTQVTVSS | high polyreactivity

From the nanobody polyreactivity screen of Harvey et al. (2022)
